Data on 41 sequences can be found in the nanobody polyreactivity screen of Harvey et al. (2022).

The data set in a line: yeast display, Sf9 membrane polyspecificity reagent, FACS + sequencing; frameworks hold sequencing errors. Put shortly: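 Polyreactivity labels are assigned by the sorting gate from which each nanobody was recovered. The gates were low and high (top ~1%), set on anti-HA fluorescence for expression and streptavidin fluorescence for reagent binding. Before sorting, galactose-induced (36–48 hours) yeast display cells were stained for 1 hour at 4 °C with 10% biotinylated, detergent-solubilized Sf9 membrane reagent.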
Take “QVQLVESGGGLVQAGGSLRLSCAASGTTFAGYAMGWYRPEPGKERELVSAISSGDSTNYADSVKGRFTISRDNAKNTVYLQMNSLKPEDTAVYYCNAEYRTRVFWWAASSYDYWGQGTQVTVSS”: the “polyreactivity (PSR sort gate)” value is recorded as “low polyreactivity”.

As for “QVQLVESGGGLVQAGGSLRLSCAASGTTFGAYAMGWYRQARGKERELVAVITWNDGSTYYADSVKGRFTISRDNAKNTVYLHMNSLKPEDTAVYYCAAEYAVSWSAFDWNYYYWGQGTQVTVSS”, the “polyreactivity (PSR sort gate)” value is “high polyreactivity”.

For “QVQLVESGGGLVQAGGSLRLSCAASGTTFGYYAMGSYRQPPGKDREFVAAISSSGGSTYYPDSVKGRFTISRDNAKNTVYLQMNSLKPEDTAVYYCARVGFPGFYWGQGTEVTVSS”, the “polyreactivity (PSR sort gate)” value is recorded as “high polyreactivity”.

“QVQLVESGGGLVQAGGSLRLSCAASGTTFLINAMGWYRQAPGKERELVATISSGGSTYYADSVKGRFTISRDNAKNNVYLQMNSLKPEDTAVYFCAADPDRTAYDYWGQGTQVTVSS”: the “polyreactivity (PSR sort gate)” value is “low polyreactivity”.

With “QVQLVESGGGLVQAGGSLRLSCAASGTTFPAYAMGWYRQAPGKERELVAVINLSGSTYYADSVKGRFTISRDNAKNTVYLQMNSLKPEDTAVYYCNARQYDYYRYGYWGQGTQVTVSS”, the “polyreactivity (PSR sort gate)” value is reported as “low polyreactivity”.

Regarding “QVQLVESGGGLVQAGGSLRLSCAASGTTFRLYAMGWSIQAPGKERELVAAISRSGRTNYADSVKGSFTISRDNAKNTVYLQLNSLKPEDTAVYYCATVPGKCGDYWGQGTQVTVSS”, the “polyreactivity (PSR sort gate)” value is “high polyreactivity”.

Turning to “QVQLVESGGGLVQAGGSLRLSCAASGTTFVSYSMGWYRQAPGKEREFVATISISGTSTYYADSVKGRFTISRDNAKNTVYLQMISLKPEDTAVYYCAARLRRRGATQFYRYDYWGQGTQVTVSS”, the “polyreactivity (PSR sort gate)” value is “high polyreactivity”.

With “QVQLVESGGGLVQAGGSLRLSCAASGTTFVYYAMVWYRQAPGKERYLVAAITWNGGSTYYADSVKGRFTISRDNAKNTVYFQMNSLKPEDTAVYYCNAAFRAGAVYGYYWGQGTQVTVSS”, the “polyreactivity (PSR sort gate)” value is “high polyreactivity”.

As to “QVQLVESGGGLVQAGGSLRLSCAASGTTFWRYTMGWYRQAPGKERELVAAISTRGGSTTYADSVKGRFTISRDKAKNNVYLQMNSLKPEDTAVYYCNADGYRGYYGRNKSKYDYWGQGTQVTVSS”, the “polyreactivity (PSR sort gate)” value is “high polyreactivity”.

On to “QVQLVESGGGLVQAGGSLRLSCAASGTTFYSNAMGWYRQAPGKEREFVAAISYSGGSTYYADSVKGRFTISRDNAKYTVYLQMNSLKPEDTAVYYCNARNWYYDGDYWVQGTQVTVSS”, for which the “polyreactivity (PSR sort gate)” value is listed as “high polyreactivity”.

For the sequence “QVQLVESGGGLVQAGGSLRLSCAASGTTIKYYAMGWSRQAPGKERELVARITSDGGSTFYADSVKGRFTISRDNAKNTVYLQMNSLKPEDTAVYYCNTAYAFRHWWFYPMDYWGQGTQVTVSS”, the “polyreactivity (PSR sort gate)” value is “high polyreactivity”.

Turning to “QVQLVESGGGLVQAGGSLRLSCAASGTTLGYYTMGWYRQAPGKERELVAAIDWSGGSTYYADSVKGRFTISRDNAKNTVYLQMNSLKPEDTAVYYCNAEPWDPFYSPGRGGMDYWGQGTQVNVSS”, the “polyreactivity (PSR sort gate)” value is on record as “low polyreactivity”.

Turning to “QVQLVESGGGLVQAGGSLRLSCAASGVIFESNAMAWYRQAPGKERELVAANTKRGGSTYYADSVKGRFTISRDNAKNTVYLQMKSLKPEDTAVYYCNALGYWRRVVDGFDNWGQGTQVTVSS”, the “polyreactivity (PSR sort gate)” value is given as “high polyreactivity”.

“QVQLVESGGGLVQAGGSLRLSCAASGVIFKAYAMGWYRPAPGKERELVAAITSSGGRTYYADSVKGRFTISRDNAKNTVYLQMNSLKPEDSAVYYCNARGVLRTSLYRYDYWGQGTQLTVSS”: the “polyreactivity (PSR sort gate)” value is recorded as “high polyreactivity”.

For the sequence “QVQLVESGGGLVQAGGSLRLSCAASGVIFRRYAMGWYREAPGKERELVAAMSSSGGRTTYADSVNGRFTISRDNAKNTVYIQMNSLKPEDTAVYYCNADLWPGNHDGYWGQGTQVTVSS”, the “polyreactivity (PSR sort gate)” value is on record as “low polyreactivity”.

Take “QVQLVESGGGLVQAGGSLRLSCAASGVTFGGYAMGWYRQAPGKERELVAAISGSGGRTYYADSVKVRFTISRDNAMNTVYLQMNSLKPEDTAVYYCAADRASPYLENYWGQGTQVTVSS”: the “polyreactivity (PSR sort gate)” value is given as “low polyreactivity”.

Regarding “QVQLVESGGGLVQAGGSLRLSCAASGYFDRNAMGWDRQAPGKERELVAAITVGGSTNYADSVKGRFTISRDNAKNSVYVQMNSLKPEDTAVYYCAADRGHTILHGGYWGQGTQVTVSS”, the “polyreactivity (PSR sort gate)” value is “low polyreactivity”.

Regarding “QVQLVESGGGLVQAGGSLRLSCAASGYIFAGYALGWYRQAPGKERELVARISRRGGITYYADSVKGRFTISRDNAKNTVYLQMNSLKPEDTAVYYCNGLGQSSSYDYWGQGTQVTVSS”, the “polyreactivity (PSR sort gate)” value was “high polyreactivity”.

Regarding “QVQLVESGGGLVQAGGSLRLSCAASGYIFAWYAMGWYRQAPGIVRELVAAISRSGGSTYYADSVKGRFTISRDNAKHTDYLQMNSLKPEDTAVYYCNAYSAYDEYDYWGQGTQVTVSS”, the “polyreactivity (PSR sort gate)” value is “high polyreactivity”.

On to “QVQLVESGGGLVQAGGSLRLSCAASGYIFAYTAMGWYRQAPGKEREFVAVITRSDDSTYADSVKGRFTISRDNAKNTVYLQMNSLKPEDTAVYYCAAQPFVIDGGYRGDYWGQGTQVTVSS”, for which the “polyreactivity (PSR sort gate)” value is recorded as “low polyreactivity”.

“QVQLVESGGGLVQAGGSLRLSCAASGYIFAYYAMGWYRQEPGKERELVADIRGRGGSTYYADSVKGRFTISRDNAKNTVYLQMNSLKTEDTAVYYCARRSPNPYSIYYYWGQGTQVTVSS”: the “polyreactivity (PSR sort gate)” value is recorded as “high polyreactivity”.

For “QVQLVESGGGLVQAGGSLRLSCAASGYIFDIYAMGWYRQAPGKERELVAVITRSGGGTYYADSVKGRFTISRDNAKKTVYLQMNSLKPEDTAVYYCAAESYVYGGSDYDYWGQGTQVTVSS”, the “polyreactivity (PSR sort gate)” value is “low polyreactivity”.

As to “QVQLVESGGGLVQAGGSLRLSCAASGYIFDRYAMGWSRPAPGKERELVAAISGRGGSTYYADSVKGRFTISLDNAKNTVYLQMNSLKPEDTAVYYCNALVQGKEYYWGQGTQVTVSS”, the “polyreactivity (PSR sort gate)” value is “high polyreactivity”.

As to “QVQLVESGGGLVQAGGSLRLSCAASGYIFDRYAMGWYRPAPGKERELVAAISVGGGTTYYADSVKGRFTISRDNAKNTVYLQMNSLKPEDTAVYYCAARSDSYAPRRGYWGQGTQVTVSS”, the “polyreactivity (PSR sort gate)” value is “high polyreactivity”.

For “QVQLVESGGGLVQAGGSLRLSCAASGYIFDYYDMGWYRQAPGKERELVAAINGSGGDTYYADSVKGRFTISRDNANNTVYLEMNSLKPEDTAVYYCAADLVYYSGWGYAFNYWGQGTQVNVSS”, the “polyreactivity (PSR sort gate)” value is reported as “high polyreactivity”.

With “QVQLVESGGGLVQAGGSLRLSCAASGYIFEEYDMGWYRQAPGKERELVAAISASGGSTYYADSVKGRFTISRDNAKNTVYLQMNSLKPEDTAVYYCAADAVREVYGSWDDYWGQGTQVTVSS”, the “polyreactivity (PSR sort gate)” value is given as “low polyreactivity”.

Take “QVQLVESGGGLVQAGGSLRLSCAASGYIFEIYAMGWYRQAPGKERELVAAISTRGGRTYYADSVKGRFTISRDNAKNTVYLEMKSLKPEDTAVYYCARESSIVPYGYWGQGTQVTVSS”: the “polyreactivity (PSR sort gate)” value was “low polyreactivity”.

For the sequence “QVQLVESGGGLVQAGGSLRLSCAASGYIFGGYAMGWYRQATGKERELVPGISIGVGSTYYADSVKGRFTISRDNAKNTVYLQMNSLKPEDSAVYYCNRVSVGYDYWGQGTQVTVSS”, the “polyreactivity (PSR sort gate)” value is “low polyreactivity”.

Take “QVQLVESGGGLVQAGGSLRLSCAASGYIFGRNAMGWYRQAPGKERELVAVISSRGSRTYYADSVKGRFTISRDNAKNTVYLQMNSLKPEDTAVYYCAVRGVVNFDYWGQGTQVTVSS”: the “polyreactivity (PSR sort gate)” value is recorded as “high polyreactivity”.

Consider “QVQLVESGGGLVQAGGSLRLSCAASGYIFGSNAMGWYRQAPGKDRELVAGISNNGGSTYYADSVKGRFTISRDKAKNTVYLQMNSLKPEDTAVYYCARDPNDDNSFPYDYWGQGTQVTVSS”, for which the “polyreactivity (PSR sort gate)” value is recorded as “low polyreactivity”.

Take “QVQLVESGGGLVQAGGSLRLSCAASGYIFGSYTMGWYRQAPGKERELVAGISRRGGGTYYADSVKGRFTMSRDNAKNNVYLQMNSLIPEDTAVYYCAAEVITIGLYRYGFWGQGTQVSVSS”: the “polyreactivity (PSR sort gate)” value was “high polyreactivity”.

Regarding “QVQLVESGGGLVQAGGSLRLSCAASGYIFGSYVMGGYRQAPGKERELVAAITRIGASTYYADSVKGRFTISRDNAKNTVYLQMNSLKPEDTAVYYCATDQGGYYENDYWGQGTQVTVSS”, the “polyreactivity (PSR sort gate)” value is recorded as “low polyreactivity”.

As for “QVQLVESGGGLVQAGGSLRLSCAASGYIFGTDAMGRYRQAPGKERELVAAISSTGRTYYADSVKGRFTISRDNAKNTVYLQMNSLKPEDTAVYYCAADVRTPSEGYDYWGQGTQVTVSS”, the “polyreactivity (PSR sort gate)” value is given as “high polyreactivity”.

In the case of “QVQLVESGGGLVQAGGSLRLSCAASGYIFGVNALGWYRQAPGKERELVAAIDSGSRTYYADSVKGRFTISRDNAKNTVYLQMNSLKPEDTAVYYFATTFYVSYGGGYYTIWYDYWGQGTQVTVSS”, the “polyreactivity (PSR sort gate)” value is reported as “low polyreactivity”.

Regarding “QVQLVESGGGLVQAGGSLRLSCAASGYIFGWNAMGWYRQAPGKERELVAAISSSGGNTYYADSVKGRFTISRDNAKNTVYLQMNSLKPEDTAVYYCARSYPYRYDYWGQGTQVTVSS”, the “polyreactivity (PSR sort gate)” value is “low polyreactivity”.

Regarding “QVQLVESGGGLVQAGGSLRLSCAASGYIFGWYTMGWYRQAPGKERELVAAISGGGRTYYADSVKGRFTISRDNAKNTVYLQMNSLKPEDTAVYYCNDYSSYIKYDYWGQGTQVTVSS”, the “polyreactivity (PSR sort gate)” value is “high polyreactivity”.

In the case of “QVQLVESGGGLVQAGGSLRLSCAASGYIFGYYAMGWYRQAPGQEREFVAAINWSGGSTYYADSVNGRFTISRDNAKNTVYLQMNSLKPEDTAVYYCARSYRSRVVYKFGYWGQGTQVTVSS”, the “polyreactivity (PSR sort gate)” value is “high polyreactivity”.

Consider “QVQLVESGGGLVQAGGSLRLSCAASGYIFGYYVMGWYRQAPGKERELVAAISGRGGRTYYADSVKGRFTISRDNAMNTVYLQMNSLKPEDTAVYYCAAADLPGTMYYWGQGTQVTVSS”, for which the “polyreactivity (PSR sort gate)” value is “high polyreactivity”.

Regarding “QVQLVESGGGLVQAGGSLRLSCAASGYIFGYYVMGWYRQAPGKERELVAAITGRGGSTYYADSVKGRFTISRDNAKNTVSLQMNSLKPEDTAVYYCAADATTYPYDPWHLYEIWEYYYWGQGTQVTVSS”, the “polyreactivity (PSR sort gate)” value is reported as “low polyreactivity”.

Take “QVQLVESGGGLVQAGGSLRLSCAASGYIFHDNAMGWYRQAPGKERELVAGITTGGSTYYADSVKGRFTISRDNAKYTVYLQMNSLKPEDTAVYYCAAKVWSRSFYKYYYWGQGTQVTVSS”: the “polyreactivity (PSR sort gate)” value is “high polyreactivity”.

Regarding “QVQLVESGGGLVQAGGSLRLSCAASGYIFHRYAMGWYRQAPGKERELVAAISWRVTSTFYADSVKGRFTISRDNAKNTVYLQMNCLKPEDTAVYYCASVKWVGYKYWSSRKYDYWGQGTQVTVSW”, the “polyreactivity (PSR sort gate)” value is reported as “high polyreactivity”.
